Assay results from article doi:10.1101/2021.11.02.466875.
Where two headings read alike, the source gives them in different places.

Assays:
Assay in all cases: BLI
[1] = molecular target: RapC (Bacillus velezensis SQR9)
[2] = molecular target: RapC (Bacillus velezensis SQR9); remark: listed apart in the source
[3] = molecular target: RapC (Bacillus velezensis SQR9); remark: listed apart in the source
[4] = molecular target: RapC (Bacillus velezensis SQR9); remark: listed apart in the source

## ComA (natural protein)
[1]
  Kd: 26.8 nM
[2]
  Kd: 5.49 nM
[3]
  Kd: 8.69 nM
[4]
  Kd: 13.5 nM
